{
  "source": "patent EP2452948B1",
  "biological_target": "Hsp90α in MCF-7 cells (Thr90 phosphorylated, intracellular) (human)",
  "test": "cell-based or functional assay",
  "data": [
    {"substance": "human PP5 in MCF-7 cells (overexpressed from pcDNA3.1/Myc-His(-), or the endogenous protein knocked down by siRNA) (enzyme)", "values": [
      {"measurement": "Thr90 phosphorylated Hsp90α level in MCF-7 cells on overexpression of human PP5 (of the control)", "value": 0.55},
      {"measurement": "Thr90 phosphorylated Hsp90α level in MCF-7 cells on siRNA knock-down of human PP5 (of the control)", "value": 1.58}
    ]}
  ]
}
